Like-named read-outs stand apart in the source and are kept apart here.
Experiments:
Test in all cases: ITC
[1] = target: T1, CaMN composed of amino acids 1–75 (UniProt P0DP23 2-76)
[2] = target: T2, CaMN composed of amino acids 1–80 (UniProt P0DP23 2-81)
[3] = target: T3, CaMC composed of amino acids 76–148 (UniProt P0DP23 77-149)
[4] = target: T1, CaMN composed of amino acids 1–75; remark: listed apart in the source
[5] = target: T2, CaMN composed of amino acids 1–80; remark: listed apart in the source
[6] = target: T3, CaMC composed of amino acids 76–148; remark: listed apart in the source
[7] = target: T1, CaMN composed of amino acids 1–75; remark: listed apart in the source
[8] = target: T2, CaMN composed of amino acids 1–80; remark: listed apart in the source
[9] = target: T3, CaMC composed of amino acids 76–148; remark: listed apart in the source
[10] = target: T1, CaMN composed of amino acids 1–75; remark: listed apart in the source
[11] = target: T2, CaMN composed of amino acids 1–80; remark: listed apart in the source
[12] = target: T3, CaMC composed of amino acids 76–148; remark: listed apart in the source
[13] = target: wild-type calmodulin (UniProt P0DP23 1-149)

B1: CaMKII(291–312) peptide (peptide)
peptide: Ac-KKFNARRKLKGAILTTMLATRN-NH2
Kd [1]: 500 nM
dH [1]: -0.2 kcal/mol
dH1 (binding mode 1) [2]: -0.3 kcal/mol
dH2 (binding mode 2) [2]: 2.4 kcal/mol
dH1 (binding mode 1) [3]: -7.7 kcal/mol
dH2 (binding mode 2) [3]: 7.6 kcal/mol
Kd [4]: 710 nM
dH [4]: -5.1 kcal/mol
dH1 (binding mode 1) [5]: -6.5 kcal/mol
dH2 (binding mode 2) [5]: -8.5 kcal/mol
dH1 (binding mode 1) [6]: -15.5 kcal/mol
dH2 (binding mode 2) [6]: 1.7 kcal/mol
Kd [7]: 280 nM
dH [7]: 1.9 kcal/mol
dH1 (binding mode 1) [8]: 3.9 kcal/mol
dH2 (binding mode 2) [8]: 5.7 kcal/mol
dH1 (binding mode 1) [9]: -3.6 kcal/mol
dH2 (binding mode 2) [9]: 6.8 kcal/mol
Kd [10]: 360 nM
dH [10]: -2.5 kcal/mol
dH1 (binding mode 1) [11]: -3.1 kcal/mol
dH2 (binding mode 2) [11]: -3.8 kcal/mol
dH1 (binding mode 1) [12]: -11.8 kcal/mol
dH2 (binding mode 2) [12]: 5.4 kcal/mol
Kd [13]: 0.07 pM
dH [13]: -6.1 kcal/mol

Reference: paper PMC2665295 (Biochemistry, 2008)
